Assay results as given in patent publication US20040208880.

Legend:
[1] = target: T1, GST fusion containing the C-terminal 19 amino acids of DLC1/PIN
T1 chain: KHFIYFYLGQVAILLFKSG

[2] = target: GST-DLC1/PIN fusion protein (wild type)
[3] = target: GST-DLC1/PIN with deletion of Ser88

B1: GST-Pak1 fusion protein, wild-type (amino acids 1-545) (protein)
chain: MSNNGLDIQDKPPAPPMRNTSTMIGVGSKDAGTLNHGSKPLPPNPEEKKKKDRFYRSILPGDKTNKKKEKERPEISLPSDFEHTIHVGFDAVTGEFTGMPEQWARLLQTSNITKSEQKKNPQAVLDVLEFYNSKKTSNSQKYMSFTDKSAEDYNSSNALNVKAVSETPAVPPVSEDEDDDDDDATPPPVIAPRPEHTKSVYTRSVIEPLPVTPTRDVATSPISPTENNTTPPDALTRNTEKQKKKPKMSDEEILEKLRSIVSVGDPKKKYTRFEKIGQGASGTVYTAMDVATGQEVAIKQMNLQQQPKKELIINEILVMRENKNPNIVNYLDSYLVGDELWVVMEYLAGGSLTDVVTETCMDEGQIAAVCRECLQALEFLHSNQVIHRDIKSDNILLGMDGSVKLTDFGFCAQITPEQSKRSTMVGTPYWMAPEVVTRKAYGPKVDIWSLGIMAIEMIEGEPPYLNENPLRALYLIATNGTPELQNPEKLSAIFRDFLNRCLDMDVEKRGSAKELLQHQFLKIAKPLSSLTPLIAAAKEATKNNH
B1 was tested, and the “in vitro kinase assay with DLC1/PIN deletions” value [1] was “GST fusion containing the C-terminal 19 amino acids of DLC1/PIN was efficiently phosphorylated by Pak1”, the “in vitro kinase assay (phosphorylation of GST-DLC1/PIN by purified Pak1 enzyme)” value [2] was “The Pak1 enzyme efficiently phosphorylated DLC1/PIN” and the “in vitro kinase assay with DLC1/PIN deletions” value [3] was “Deletion of Ser88 of DLC1/PIN completely abolished the ability of the Pak1 to phosphorylate DLC1/PIN”.
